Biological target: Alexa 594 labeled His-tagged protoxin (Clostridium perfringens epsilon protoxin) (Clostridium perfringens, UniProt Q02307 33-328)
Test: fluorescent toxin staining, MAL loss-of-function mouse

B1: mouse MAL (endogenous, in wild-type mouse tissues; absent in MAL KO mice) (receptor)
chain: MAPAAASGGSTLPSGFSVFTTFPDLLFVCEFVFGGLVWILIASSLVPLPLAQGWVMFVSVFCFVATTSLMILYIIGTHGGETSWITLDAAYHCVAALFYLSASVLEALATISMFDGFTYKHYHENIAAVVFAYVVTLIYVVHAVFSLIRWKSS
notes: whole, on cells
Q: Does B1 bind?
A: binds

— patent US20160017022A1 (CORNELL UNIVERSITY, published 2016)
